From paper PMC11912008

Molecular target: Rabbit (Oryctolagus cuniculus) 80S ribosome (rabbit (endogenous in rabbit reticulocyte lysate)) (UniProt G1U0Q2)

Row | Substance | IC50 of inhibition of translation of nanoluciferase mRNA in RRL [nM]
1 | Refolded WT human angiogenin (from UniProt P03950 25-147) (enzyme) | 33
2 | Refolded angiogenin(K54E) (from UniProt P03950 25-147) (enzyme) | 440
